In patent US20220073643A1:
Where a chain is given by its changes, count along the chain named.

B1: 61H12G10 (antibody, V domains shown)
VH: QVQLKESGPGLVAPSQSLSITCTVSGFSLTDYGVSWIRQPPGKGLEWLGVIWGGGSTYYNSALKSRLIISKDNSKSQVFLKMNSLQTDDTAIYYCAKHHYGNACDYWGQGTTLTVSS
VL: DIVMTQSPSSLTVTAGEKVTMSCKSSQSLFNSGNLKNYLTWYQQKPGQPPKLLICWASTRESGVPDRFTGSGSGTEFTLTISSVQAEDLAVYYCQNDYSYPFTFGSGTKLEIK
B2: 69D5C1 (antibody, V domains shown)
VH: EVKLVESGGGLVQPGGSRKLSCAASGFTFRDYGMAWVRQAPGKGPEWITFISNLAYSIYYADTVTGRFTISTENAKNTLYLEMSSLRSEDTAMYYCAVIYYGNSFAYWGQGTLVTV
VL: B1 VL with M4L, F30L, K36R, C55Y, E76D, V84L, V91I, D97G
B3: 231H4G11 (antibody, V domains shown)
VH: QAYLQQSGAELVRSGASVKMSCKASGYTFTSHNIHWVKQTPGQGLEWIGYISPGNGYTNYNQKFRGKATLTADTSSSTAYMQISSLTSEDSAVYFCTRDYYGNSFAYWGQGTLVTVSA
VL: DIVMTQSPSSLTEKAGERVSMSCKSSQSLFNSGSQKNYLTWYQQKPGQPPKLLIYWASTRESGVPDRFSGSGSGTDFTLTISSVQAEDLAVYYCQNNYWFPFTFGAGTKLELK
B4: 232D7C8 (antibody, V domains shown)
VH: B3 VH with I34M, S52Y, Y57G, R65K, T97A, Y101F
VL: DILMTQSPSSLTATAGEKVSMSCKSSQSLFNSGNQRNYLTWYQQRPGQPPKLLIYWASTRESGVPDRFTGSGSGTDFTLTISSVQAEDLAVYYCQNDYRYPFTFGAGTKLELK
B5: 424G9G3 (antibody, V domains shown)
VH: QVQLQQSGPEVVRPGASVKMSCKGSGYTLNNFWMHWVKQRPGQGLEWIGMIDTSNGETRLNQIFKDKATLTVDKSSKTAYMQLSSLTSEDSAVYYCAPYGNFADWGQGTTLTVSS
VL: DVLLTQTPLSLPVSLGDQASISCRSSQSIVYGNGNTYLEWYLQKPGQSPKLLIYKVSSRFSGVPDRFSGSGSGTDFTLKITKVEAEDLGVYYCFQGSHVPFTFGSGTKLEIK
B6: 420H7E6 (antibody, V domains shown)
VH: DVQLVESGGGLVQPGGSRKLSCVTSGFTFSSFGMHWIRQAPEKGLEWVAFISGGGSPIFYADSVKGRFTVSRDNPKNTLFLQMTGLRSEDTAMYFCARFYFGNSFAYWGQGTLVTVSA
VL: DIVMAQSPSSLTVTAGEKVTMNCRSSQSLFNSGNQKNYLTWYQQKPGQPPKLLIYWASTRESGVPVRFTGSGSGTDFTLTISSVQAEDLAVYYCQTGFSYPLTFGPGTKLELK
B7: 423C10E1 (antibody, V domains shown)
VH: B6 VH with I37V
VL: B6 VL with A5T, P49S, G97S, S99N
B8: 420G10G3 (antibody, V domains shown)
VH: DVQLVESGGGLVQPGGSRKLSCAASGFTFSGFGMHWIRQTAEKGLEWVAYISSGSRPIYYADTVQGRFTISRDNPKNTLFLQMTSLRSEDTAMYFCARFYYGNSFDHWGQGTLVTVSA
VL: DIVMTQSPSFLTVTAGEKVTMSCKSSQSLLNSGNQKNYLTWYQQKPGQPPKLLIYWASTRESGVPDRFTGSGSGTDFTLTISSVQAEDLALYYCQNAYSFPLTFGAGTKLELK
B9: 226A4B5 (antibody, V domains shown)
VH: QAYLQQSGAELVRSGASVRMSCKASGFTFTSYNIHWVKQTPGQGLEWIGYIYPGSGGSNYNQKFMGKATLTADTSSSTVYMQISSLTSEDSAVYFCATGRGFAYWGQGTLVTVSA
VL: B8 VL with F10S, L30F, W56R, L91V, A97D, F100Y, A106T
B10: 222B6G5 (antibody, V domains shown)
VH: QTYLQQSGAELVRSGASVKMSCKASGYTFTSYNIHWVKQTPGQGLEWIGYISPGNGGTYYNLKFKDKATLTTATSSSTAYMQISSLTSEDSAVYFCATGRGFAYWGQGTLVTVSA
VL: B8 VL with F10S, A15P, L30F, T40I, W56R, E61D, S83N, L91V, A97D, F100Y
B11: 234A10F7 (antibody, V domains shown)
VH: QVQLQQSGAELVKPGASVKLSCKASGYTFTSFGINWLRQRPEQGLEWIGWIFPGDGNSKYNENFKGKATLTTDKSSSTAYMQLTRLTSEDSAVYFCARFYYGNSFAYWGQGTLVTVSA
VL: B8 VL with F10S, A15T, E17Q, S58A, L91V, A97D, S99F, F100Y, L102F
B12: 35E8D2 (antibody, V domains shown)
VH: QIQLVQSGPELKKPGETVRISCKASGYTFTTAGMQWVQKMPGKGLKWIGWINTHSRVPNFAEDFKGRFAFSLETSARIAYLQISNIKNEDMATYFCARLGKGNTMDFWGQGTSVTVSS
VL: B8 VL with F10S, A15V, G74E, V84L, L91V, A97S, A106G, K109N, L112I
B13: 233D5E5 (antibody, V domains shown)
VH: B3 VH with I34M, G42R, S52Y, Y57D, R65K
VL: B3 VL with S34N, S69T, N97A, F100Y
B14: 231C11E9 (antibody, V domains shown)
VH: EVMLVESGGGLVKPGGSLKLSCAASGFTFNNYVMCWVRQTPEKRLEWVATISSGNFYTYYPDSVKGRFTISRDNAKNTLYLQMSSLRSEDTAIYYCASLGRGNALDNWGQGTSVTVSS
VL: B1 VL with S9A, G16K, K24R, F30L, L35Q, C55Y, E76D
B15: 232F1E4 (antibody, V domains shown)
VH: QVQLKESGPGLVAPSQSLSITCTVSGFALTTYGVSWVRQPPGKGLEWLGVIWGDGSTHYHSALISRLSIRKDNSKSQVFLKLNSLQTDDTATYYCAKPGRGNAMDYWGQGTSVTVSS
VL: B8 VL with T5S, F10S, P49S, V84M, L91V, A97D, S99I, F100Y, K109M
B16: 425C6D3 (antibody, V domains shown)
VH: B8 VH with A41P, A118S
VL: B8 VL
B17: 425B3D5 (antibody, V domains shown)
VH: B8 VH with A41P, A118S
VL: B8 VL
B18: 207F8G5 (antibody, V domains shown)
VH: B10 VH with T2A, Y27F, T58S, Y59N, T72S
VL: B8 VL with F10S, A15P, L30F, T40I, W56R, E61D, S83N, L91I, A97D, F100Y
B19: 420H3H9 (antibody, V domains shown)
VH: DVQLVESGGGLVQPGGSRKLSCAASGFTFSSFGMHWVRQAPEKGLEWVAYISSGSSTIYYAHSVKGRFTISRDNPKNTLFLQMTSLGSEDTAMYYCARFYYGNSFAYWGQGTLVTVSA
VL: B8 VL with F10S, M21L, L52M, L91D, S99T, F100Y, K109R
B20: 430B3F1 (antibody, V domains shown)
VH: B8 VH with A41P, S55G, V116I, A118S
VL: B8 VL
B21: 422E8F9 (antibody, V domains shown)
VH: B8 VH with A41P, A118S
VL: B8 VL
B22: 422F4B6 (antibody, V domains shown)
VH: B19 VH with T28S, T57P, H62D, S63T, T69I, G87R, Y95F, F99I
VL: B8 VL with F10S, S28T, L91V, F100Y, A106S
B23: 426H6E11 (antibody, V domains shown)
VH: B8 VH with A41P, A118S
VL: B8 VL with S7F, S28T, K109N
B24: 426D9F6 (antibody, V domains shown)
VH: B8 VH with A41P, Q65K
VL: B8 VL with K36R, I81V
B25: 203A6D5 (antibody, V domains shown)
VH: QVQLKQSGPGLVQPSQSLSITCTVSGFSLTRYGVHWVRQSPGKGLEWLGVIWSGGNTDYNAAFISRLNIRKDNSKSQVFFKMNSLKPNDTAIYYCARAAYFGNSFDYWGQGTTLTVSS
VL: B8 VL with F10S, T12P, E61D, L91V, A97N, S99I, F100Y
B26: 421H4G3 (antibody, V domains shown)
VH: B8 VH with T28S, M34L, A41P, Q65K, Y101F, A118T
VL: B8 VL with K24R, K36R, S82N
B27: 232C5E3 (antibody, V domains shown)
VH: B3 VH with V37I, Q43K, S52Y, Y57G, R65K, G66A, T97A
VL: B3 VL with V3M, K14T, R18K, F30L, S34N, N97G, W99R
B28: 182D10F1 (antibody, V domains shown)
VH: B9 VH with R19K, F27Y, T30S, I34M, S55N, S58T, M65K, V79A, A97L, A103T
VL: B6 VL with A5T, R24K, W56R, V66D, T96N, G97D, F98Y, P106V
B29: 217D9G2 (antibody, V domains shown)
VH: B10 VH with T2A, Y27F, T58S, Y59N, K63N, T72A, S77T
VL: DIVMTQSPSSLTVTPGEKVTMSCRSSQSLFNSGNQKNYLIWYQQKPGQPPKLLIYRASTRDSGVPDRFTGSGSGTDFTLTISNVQAEDLAVYYCQNDYSYPLTFGAGTKLELK

molecular target: Claudin18.2-His protein (human); experiment: indirect ELISA on coated Claudin18.2-His

EC50 [µg/mL]	Binder
0.0351	B1
0.00266	B2
0.0394	B3
0.0305	B4
0.03	B5
0.0545	B6
0.0297	B7
0.0113	B8
0.00813	B9
0.0201	B10
0.0268	B11
0.00319	B12
0.0943	B13
0.0413	B14
0.0509	B15
0.0114	B16
0.0037	B17
0.0335	B18
0.00722	B19
0.0154	B20
0.00873	B21
0.149	B22
0.0224	B23
0.0112	B24
0.0271	B25
0.00753	B26
0.0259	B27
0.0236	B28
0.028	B29
